Measurements as given in patent publication US20180243665A1.

Columns and labels:
[1] = target: monoclonal IgG antibody in clarified CHO cell supernatant; test: affinity chromatography, 3-column PCC, undiluted supernatant feed, 2.5 min residence time, column switch at 5% breakthrough
[2] = target: monoclonal IgG antibody in clarified CHO cell supernatant; test: affinity chromatography, 3-column PCC, 1.5 g/L mAb feed, 45% breakthrough, 0.5 min residence time

Substance: SpA variant ligands (tetramers of Zvar), covalently coupled via a C-terminal cysteine to crosslinked agarose beads (designed binder)
- dynamic binding capacity [1]: 54 g/L
- dynamic capacity [2]: 43 g/L
